Source: the supplement of paper PMC10065799, “High-throughput profiling of sequence recognition by tyrosine kinases and SH2 domains using bacterial peptide display” (eLife, 2023)

Tests used:
[1] = system: AncSZ; assay: phosphorylation enrichment, bacterial display (enrichment ratio); higher = better substrate or ligand; peptides without Tyr show the background
[2] = target: EPHB1 (UniProt P54762); assay: as above
[3] = target: EPHB2 (UniProt P29323); assay: as above
[4] = target: FGFR1 (UniProt P11362); assay: as above
[5] = target: FGFR3 (UniProt P22607); assay: as above
[6] = system: Fer (mouse); assay: as above
[7] = target: Fes (UniProt P07332); assay: as above
Sequence of Fes (P07332 whole entry, looked up): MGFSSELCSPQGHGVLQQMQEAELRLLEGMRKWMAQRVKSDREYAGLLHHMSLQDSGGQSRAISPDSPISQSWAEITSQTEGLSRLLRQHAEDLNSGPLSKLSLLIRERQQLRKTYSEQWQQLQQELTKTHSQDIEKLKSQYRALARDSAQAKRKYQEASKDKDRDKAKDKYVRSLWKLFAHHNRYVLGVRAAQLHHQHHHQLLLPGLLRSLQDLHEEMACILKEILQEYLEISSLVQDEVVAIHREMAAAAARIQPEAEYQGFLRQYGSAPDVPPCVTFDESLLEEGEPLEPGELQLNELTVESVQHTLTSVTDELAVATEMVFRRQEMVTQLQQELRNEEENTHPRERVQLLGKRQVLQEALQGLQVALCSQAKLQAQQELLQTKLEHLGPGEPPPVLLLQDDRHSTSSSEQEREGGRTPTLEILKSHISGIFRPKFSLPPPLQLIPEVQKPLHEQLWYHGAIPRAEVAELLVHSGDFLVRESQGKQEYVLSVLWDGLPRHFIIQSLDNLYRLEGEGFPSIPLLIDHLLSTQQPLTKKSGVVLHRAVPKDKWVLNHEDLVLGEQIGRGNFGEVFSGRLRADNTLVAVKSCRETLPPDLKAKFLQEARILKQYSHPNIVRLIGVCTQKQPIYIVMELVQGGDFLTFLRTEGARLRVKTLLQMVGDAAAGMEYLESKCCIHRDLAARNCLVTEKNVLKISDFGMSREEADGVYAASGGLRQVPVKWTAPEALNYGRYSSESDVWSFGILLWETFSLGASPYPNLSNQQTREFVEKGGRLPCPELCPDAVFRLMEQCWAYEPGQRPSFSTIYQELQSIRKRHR

[8] = target: Fyn (UniProt P06241); assay: as above
Sequence of Fyn (P06241 whole entry, looked up): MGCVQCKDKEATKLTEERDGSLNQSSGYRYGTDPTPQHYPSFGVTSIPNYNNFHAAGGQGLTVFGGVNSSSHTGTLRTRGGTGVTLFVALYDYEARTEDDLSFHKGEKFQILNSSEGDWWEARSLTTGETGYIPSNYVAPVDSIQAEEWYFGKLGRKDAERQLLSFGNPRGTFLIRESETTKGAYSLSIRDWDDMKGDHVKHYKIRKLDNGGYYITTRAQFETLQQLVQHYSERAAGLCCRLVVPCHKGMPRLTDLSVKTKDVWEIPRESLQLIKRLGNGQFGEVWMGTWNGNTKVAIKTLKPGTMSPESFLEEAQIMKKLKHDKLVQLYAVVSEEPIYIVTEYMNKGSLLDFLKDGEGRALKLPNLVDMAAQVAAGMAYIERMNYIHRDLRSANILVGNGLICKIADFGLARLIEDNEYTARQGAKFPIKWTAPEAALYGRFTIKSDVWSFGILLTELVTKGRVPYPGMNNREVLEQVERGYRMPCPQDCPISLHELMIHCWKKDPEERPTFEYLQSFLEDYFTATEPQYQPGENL

[9] = target: Hck (UniProt P08631); assay: as above
Sequence of Hck (P08631 whole entry, looked up): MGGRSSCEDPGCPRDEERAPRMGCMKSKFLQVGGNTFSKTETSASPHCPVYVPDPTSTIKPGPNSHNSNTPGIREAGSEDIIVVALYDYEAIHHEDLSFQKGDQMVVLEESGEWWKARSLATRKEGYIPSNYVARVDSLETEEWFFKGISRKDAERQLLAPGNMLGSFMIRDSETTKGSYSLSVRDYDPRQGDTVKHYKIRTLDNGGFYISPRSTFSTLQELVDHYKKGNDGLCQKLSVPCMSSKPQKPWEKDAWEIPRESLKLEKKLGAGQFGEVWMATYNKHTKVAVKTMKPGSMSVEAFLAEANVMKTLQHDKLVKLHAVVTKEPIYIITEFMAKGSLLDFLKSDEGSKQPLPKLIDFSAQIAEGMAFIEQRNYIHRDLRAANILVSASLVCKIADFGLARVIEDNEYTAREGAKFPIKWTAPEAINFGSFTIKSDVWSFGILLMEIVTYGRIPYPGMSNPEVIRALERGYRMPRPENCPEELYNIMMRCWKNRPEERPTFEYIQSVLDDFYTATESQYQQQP

[10] = target: Jak2 (UniProt O60674); assay: as above
Sequence of Jak2 (O60674 whole entry, looked up): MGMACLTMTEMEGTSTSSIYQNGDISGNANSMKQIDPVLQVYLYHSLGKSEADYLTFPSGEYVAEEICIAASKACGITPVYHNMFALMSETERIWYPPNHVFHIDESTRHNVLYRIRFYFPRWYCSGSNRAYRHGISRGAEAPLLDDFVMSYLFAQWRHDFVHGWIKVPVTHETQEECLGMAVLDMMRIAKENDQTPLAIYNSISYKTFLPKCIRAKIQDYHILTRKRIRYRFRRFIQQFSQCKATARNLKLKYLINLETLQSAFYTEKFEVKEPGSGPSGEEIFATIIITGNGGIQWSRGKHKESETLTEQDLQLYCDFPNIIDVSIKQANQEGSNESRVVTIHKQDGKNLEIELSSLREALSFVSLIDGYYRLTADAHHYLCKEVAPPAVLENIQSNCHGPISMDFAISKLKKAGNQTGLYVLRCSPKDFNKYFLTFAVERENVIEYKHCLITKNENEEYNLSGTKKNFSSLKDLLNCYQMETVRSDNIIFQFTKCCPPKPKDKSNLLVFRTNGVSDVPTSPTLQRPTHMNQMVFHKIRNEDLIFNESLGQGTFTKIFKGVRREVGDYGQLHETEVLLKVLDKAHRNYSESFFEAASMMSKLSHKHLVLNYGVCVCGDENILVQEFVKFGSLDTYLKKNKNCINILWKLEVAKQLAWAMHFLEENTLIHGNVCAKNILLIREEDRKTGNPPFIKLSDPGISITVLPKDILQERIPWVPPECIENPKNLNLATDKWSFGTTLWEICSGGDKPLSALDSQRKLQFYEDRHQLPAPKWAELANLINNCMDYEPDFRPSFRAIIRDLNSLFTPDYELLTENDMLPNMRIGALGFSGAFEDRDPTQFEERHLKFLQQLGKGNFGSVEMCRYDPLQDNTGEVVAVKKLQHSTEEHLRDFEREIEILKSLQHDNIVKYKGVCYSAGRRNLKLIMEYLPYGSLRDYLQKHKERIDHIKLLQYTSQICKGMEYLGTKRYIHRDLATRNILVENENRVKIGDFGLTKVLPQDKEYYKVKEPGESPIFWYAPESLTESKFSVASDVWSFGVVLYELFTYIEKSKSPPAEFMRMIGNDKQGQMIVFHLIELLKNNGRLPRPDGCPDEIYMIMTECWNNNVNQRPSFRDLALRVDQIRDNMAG

[11] = target: MERTK (UniProt Q12866); assay: as above
Sequence of MERTK (Q12866 whole entry, looked up): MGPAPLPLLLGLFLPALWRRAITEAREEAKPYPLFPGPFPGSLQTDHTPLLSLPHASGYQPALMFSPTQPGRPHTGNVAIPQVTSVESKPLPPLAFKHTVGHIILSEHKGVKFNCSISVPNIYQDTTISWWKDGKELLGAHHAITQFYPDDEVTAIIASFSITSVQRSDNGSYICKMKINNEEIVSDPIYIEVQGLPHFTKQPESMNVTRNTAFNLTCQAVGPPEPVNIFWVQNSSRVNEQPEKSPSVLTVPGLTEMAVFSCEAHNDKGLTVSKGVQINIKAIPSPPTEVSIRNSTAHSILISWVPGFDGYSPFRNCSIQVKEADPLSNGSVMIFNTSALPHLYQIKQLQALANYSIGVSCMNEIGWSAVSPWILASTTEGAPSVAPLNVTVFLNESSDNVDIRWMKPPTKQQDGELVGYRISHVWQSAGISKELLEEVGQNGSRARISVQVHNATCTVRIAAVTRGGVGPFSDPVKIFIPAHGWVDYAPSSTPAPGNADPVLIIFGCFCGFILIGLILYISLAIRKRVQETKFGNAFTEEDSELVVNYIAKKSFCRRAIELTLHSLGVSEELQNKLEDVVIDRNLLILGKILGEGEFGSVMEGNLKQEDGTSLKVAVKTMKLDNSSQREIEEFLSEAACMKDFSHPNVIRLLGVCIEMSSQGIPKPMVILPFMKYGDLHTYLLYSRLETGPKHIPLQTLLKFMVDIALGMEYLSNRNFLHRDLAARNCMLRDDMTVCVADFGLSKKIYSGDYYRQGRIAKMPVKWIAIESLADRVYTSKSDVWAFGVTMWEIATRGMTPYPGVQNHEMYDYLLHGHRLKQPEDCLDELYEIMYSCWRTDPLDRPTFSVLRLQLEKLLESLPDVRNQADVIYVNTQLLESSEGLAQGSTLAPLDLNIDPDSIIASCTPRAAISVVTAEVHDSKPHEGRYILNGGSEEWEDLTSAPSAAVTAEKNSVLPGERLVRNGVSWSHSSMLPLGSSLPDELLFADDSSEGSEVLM

[12] = system: c-Abl (mouse); assay: as above
[13] = system: c-Src; assay: as above
[14] = target: Grb2 SH2 (UniProt P62993); assay: SH2 binding enrichment of the phosphorylated peptide, bacterial display (enrichment ratio); higher = better substrate or ligand; peptides without Tyr show the background
[15] = target: SHP2-C SH2; assay: as above
[16] = target: c-Src SH2; assay: as above
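Throughout, for SH2 binding enrichment of the phosphorylated peptide, bacterial display: peptide library displayed on the E. coli surface as eCPX fusions, selected cells deep-sequenced, score is each peptide's frequency after selection divided by its frequency in the input.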
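Throughout, for phosphorylation enrichment, bacterial display: 11-residue human phosphosite peptides and single-mutation variants displayed on the E. coli surface, counted by deep sequencing, each peptide's frequency after selection divided by its frequency in the unselected input library; frequency after pTyr selection over input frequency; kinase dosed for 20-30% of maximal phosphorylation in three min.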

Sequence of EPHB1 (P54762 whole entry, looked up): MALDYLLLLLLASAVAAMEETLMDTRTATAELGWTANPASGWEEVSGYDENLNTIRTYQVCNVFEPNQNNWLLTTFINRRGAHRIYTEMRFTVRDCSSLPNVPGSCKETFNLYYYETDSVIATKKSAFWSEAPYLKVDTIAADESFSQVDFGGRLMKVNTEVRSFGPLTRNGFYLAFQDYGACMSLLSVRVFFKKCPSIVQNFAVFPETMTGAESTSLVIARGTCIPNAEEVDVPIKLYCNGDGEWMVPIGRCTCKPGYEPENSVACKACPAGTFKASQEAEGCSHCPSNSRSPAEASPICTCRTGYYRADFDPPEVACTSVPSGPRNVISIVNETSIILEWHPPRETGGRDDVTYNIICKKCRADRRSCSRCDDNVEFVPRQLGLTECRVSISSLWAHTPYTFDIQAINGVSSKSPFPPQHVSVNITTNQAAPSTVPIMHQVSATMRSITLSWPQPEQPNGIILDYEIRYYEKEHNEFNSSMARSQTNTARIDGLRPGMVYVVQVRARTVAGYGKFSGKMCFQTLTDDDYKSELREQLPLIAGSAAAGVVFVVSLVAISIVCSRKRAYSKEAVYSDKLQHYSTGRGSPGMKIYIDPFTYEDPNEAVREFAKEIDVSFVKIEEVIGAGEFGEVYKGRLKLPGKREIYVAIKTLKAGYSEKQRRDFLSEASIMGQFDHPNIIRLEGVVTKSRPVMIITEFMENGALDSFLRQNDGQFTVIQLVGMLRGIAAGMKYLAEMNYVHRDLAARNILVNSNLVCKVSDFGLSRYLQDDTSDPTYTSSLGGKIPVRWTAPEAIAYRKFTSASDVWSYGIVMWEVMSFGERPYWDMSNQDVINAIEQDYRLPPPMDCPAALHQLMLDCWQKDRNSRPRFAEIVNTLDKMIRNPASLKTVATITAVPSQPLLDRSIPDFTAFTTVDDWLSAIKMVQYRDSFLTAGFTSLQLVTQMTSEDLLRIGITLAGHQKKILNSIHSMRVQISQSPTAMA

Row | Sequence | SH2 binding enrichment [14] | SH2 binding enrichment [15] | SH2 binding enrichment [16] | phosphorylation enrichment [1] | phosphorylation enrichment [2] | phosphorylation enrichment [3] | phosphorylation enrichment [4] | phosphorylation enrichment [5] | phosphorylation enrichment [6] | phosphorylation enrichment [7] | phosphorylation enrichment [8] | phosphorylation enrichment [9] | phosphorylation enrichment [10] | phosphorylation enrichment [11] | phosphorylation enrichment [12] | phosphorylation enrichment [13]
1 | FSVDGYDSSVR [KCNQ1_Y461] | 0.948 | 0.727 | 0.688 | 0.693 | 0.519 | 0.513 | 0.427 | 0.53 | 0.36 | 0.773 | 0.461 | 0.393 | 0.672 | 0.311 | 0.648 | 0.37
2 | FYDANCDGKEY [MAPRE2_Y162_Y162C] | 1.03 | 0.641 | 0.617 | 1.21 | 0.651 | 0.682 | 0.497 | 0.922 | 0.527 | 1.4 | 0.612 | 0.563 | 1.13 | 0.539 | 0.81 | 0.642
3 | GAAMLYFPSVS [GPR143_Y177_YF] | 0.871 | 0.895 | 0.503 | 0.613 | 0.465 | 0.423 | 0.66 | 0.736 | 0.437 | 0.764 | 0.445 | 0.512 | 1.36 | 0.732 | 0.535 | 0.56
4 | GDEVEYMSVSF [GCLC_Y53_L55S] | 0.736 | 0.623 | 0.376 | 1.56 | 0.561 | 0.832 | 1.01 | 1.17 | 0.972 | 1.16 | 1.41 | 1.26 | 1.11 | 0.418 | 0.846 | 1.49
5 | GDGRFYMKEAI [PGM1_Y66] | 0.642 | 0.658 | 0.561 | 0.875 | 0.552 | 0.613 | 0.52 | 0.682 | 0.549 | 1.11 | 0.45 | 0.454 | 1.03 | 0.311 | 0.709 | 0.38
6 | GEDDVYDSVPG [FGR_opt_2018] | 0.85 | 0.623 | 0.587 | 1.39 | 0.683 | 0.762 | 0.676 | 0.783 | 0.861 | 1.2 | 1.59 | 1.37 | 0.946 | 0.544 | 0.617 | 0.933
7 | GFFDLYGGEKF [PTPN11_Y66_D61G_YF] | 0.995 | 0.832 | 0.564 | 0.906 | 0.603 | 0.858 | 0.484 | 0.575 | 0.72 | 1.05 | 2.13 | 3.85 | 0.914 | 0.504 | 0.767 | 2.7
8 | GGDAVYTNGTI [RFX2_Y82_A86T] | 0.91 | 0.597 | 0.434 | 0.778 | 1.39 | 0.488 | 0.392 | 0.613 | 0.464 | 0.836 | 1.17 | 1.19 | 0.667 | 0.391 | 0.74 | 1.32
9 | GGQSVYHVHLH [HINT1_Y109] | 1.19 | 0.904 | 0.897 | 0.619 | 0.476 | 0.487 | 0.495 | 0.532 | 0.455 | 0.77 | 0.865 | 0.686 | 0.629 | 0.434 | 0.581 | 1.01
10 | GGQSVYHVNLH [HINT1_Y109_H112N] | 0.698 | 0.663 | 0.491 | 0.583 | 0.495 | 0.364 | 0.429 | 0.376 | 0.337 | 0.617 | 1.01 | 0.583 | 0.491 | 0.387 | 0.491 | 1.03
11 | GGSDRYGSLRP [MYLK_Y846] | 0.997 | 0.562 | 0.428 | 0.494 | 0.385 | 0.418 | 0.425 | 0.407 | 0.332 | 0.61 | 0.385 | 0.339 | 0.716 | 0.37 | 0.495 | 0.452

Continued, in another order:

Row | SH2 binding enrichment [14] | SH2 binding enrichment [15] | SH2 binding enrichment [16] | Sequence | phosphorylation enrichment [1] | phosphorylation enrichment [2] | phosphorylation enrichment [3] | phosphorylation enrichment [4] | phosphorylation enrichment [5] | phosphorylation enrichment [6] | phosphorylation enrichment [7] | phosphorylation enrichment [8] | phosphorylation enrichment [9] | phosphorylation enrichment [10] | phosphorylation enrichment [11] | phosphorylation enrichment [12] | phosphorylation enrichment [13]
12 | 0.938 | 0.818 | 0.877 | FSQQTYYPVSN [ABCD1_Y180_R182P] | 0.805 | 4.58 | 3.55 | 9.03 | 6.85 | 0.983 | 0.647 | 2.76 | 5.05 | 7.07 | 7.46 | 0.697 | 4.37
13 | 0.751 | 10.1 | 1.84 | GENTMYAQVFN [LY9_Y603] | 0.912 | 1.47 | 0.787 | 0.56 | 0.561 | 5.6 | 0.968 | 2.5 | 3.32 | 0.803 | 2.18 | 0.958 | 2.38
14 | 0.778 | 0.876 | 4.32 | GESQGYDIMEA [MSH2_Y863_P868A] | 0.85 | 0.469 | 0.484 | 0.536 | 0.546 | 0.463 | 0.883 | 0.456 | 0.492 | 0.744 | 0.42 | 0.577 | 0.417
15 | 0.96 | 1.38 | 1.24 | GFPVRYTDVSN [DNMT3B_Y815_H814R] | 0.606 | 0.678 | 0.441 | 0.457 | 0.531 | 0.398 | 0.665 | 0.423 | 0.451 | 0.712 | 0.466 | 0.529 | 0.448
16 | 0.784 | 0.675 | 0.398 | GFVEDYRPPFF [ACVRL1_Y421_I417F_YF] | 0.944 | 0.504 | 0.444 | 0.537 | 0.6 | 0.411 | 0.987 | 0.442 | 0.525 | 0.879 | 0.428 | 0.868 | 0.501
